Experimental data from PMC8934283 (Nature, 2022).

Experiments:
Test in all cases: cryo-EM structure
[1] = molecular target: ribosomal protein uS21 (E. coli, UniProt P68679 1-71)
[2] = molecular target: ribosomal protein uS2 (E. coli, UniProt P0A7V0 1-241)
[3] = molecular target: ribosomal protein uS3 (E. coli, UniProt P0A7V3 1-233)
[4] = molecular target: ribosomal protein uS5 (E. coli, UniProt P0A7W1 1-166)
[5] = molecular target: ribosomal protein uS11 (E. coli, UniProt P0A7R9 1-129)

Measured: binding result

B1: E. coli SmrB inactive mutant (99DLH101-ALA) (enzyme)
chain: MKKKTTLSEEDQALFRQLMAGTRKIKQDTIVHRPQRKKISEVPVKRLIQEQADASHYFSDEFQPLLNTEGPVKYVRPDVSHFEAKKLRRGDYSPELFLALAGLTQLQAKQELGALIAACRREHVFCACVMHGHGKHILKQQTPLWLAQHPHVMAFHQAPKEYGGDAALLVLIEVEEWLPPEL
binds: all assays above
